Tests used:
[1] = live cell anti-HA surface labelling, confocal; conditions: glycan lost; control: WT Piezo1 with extracellular HA tag
[2] = Fura-2 ratiometric Ca2+ imaging, 2 µM Yoda-1; conditions: glycan lost; control: WT Piezo1
[3] = single-channel recordings at five voltages; conditions: glycan lost; control: WT Piezo1
[4] = cell-attached patch clamp, split construct, Piezo1-/- HEK293T; conditions: glycan lost; control: WT split Piezo1
[5] = inactivation time constants, cell-attached patches; conditions: glycan lost; control: WT Piezo1-GFP
[6] = cell-attached patch clamp, peak stretch-activated current, Piezo1-/- HEK293T; conditions: glycan lost; control: WT Piezo1-GFP
[7] = immunogold TEM, membrane/cytoplasm labelling ratio; conditions: glycan lost; control: WT Piezo1

Substance | other: unitary conductance, other: unitary conductance [3] | other: channel current [6] | further results
human Piezo1: N2294Q/N2331Q | – | – | localisation_or_trafficking [1]: abolishes; other: Yoda-1-evoked Ca2+ influx [2]: abolishes
human Piezo1: N295Q | no change | – | –
human Piezo1: N892Q | no change | – | –
human Piezo1: N2294Q and N2331Q | – | – | other: channel current [4]: abolishes
human Piezo1: N2331Q | – | no change | other: channel inactivation kinetics [5]: no change
human Piezo1: N658Q and N885Q | – | decreases | –
human Piezo1: N2294Q | – | no change | other: channel inactivation kinetics [5]: no change
human Piezo1: N885Q | no change | decreases | –
human Piezo1: N1095Q | no change | – | –
human Piezo1: N295Q and N885Q | – | decreases | –
human Piezo1: N2294Q/N2331Q (CapQQ) | – | decreases | localisation_or_trafficking [7]: decreases
human Piezo1: N658Q | no change | decreases | –
